Experimental data from patent publication US20070026463A1, “Compositions and methods of mutant Nogo-66 domain proteins” (Wyeth, priority 2005, published 2007).

T1: human Nogo Receptor-1 protein (NgR1) (Homo sapiens, UniProt Q9BZR6)
T1 construct: expressed in transfected cells; host or cells: COS7
T1 sequence (Q9BZR6 27-447): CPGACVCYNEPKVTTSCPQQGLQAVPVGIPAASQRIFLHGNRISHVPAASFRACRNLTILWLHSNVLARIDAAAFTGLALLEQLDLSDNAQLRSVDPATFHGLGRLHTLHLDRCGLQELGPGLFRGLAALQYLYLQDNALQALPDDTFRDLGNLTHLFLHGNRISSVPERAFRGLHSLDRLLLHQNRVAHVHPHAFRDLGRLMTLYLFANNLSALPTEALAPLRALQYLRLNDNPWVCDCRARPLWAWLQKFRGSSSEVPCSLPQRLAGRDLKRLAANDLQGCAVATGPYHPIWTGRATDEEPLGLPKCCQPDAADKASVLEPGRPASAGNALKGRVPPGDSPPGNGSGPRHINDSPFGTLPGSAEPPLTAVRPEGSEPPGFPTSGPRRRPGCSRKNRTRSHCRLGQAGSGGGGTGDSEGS

T2: NgR1 (Homo sapiens, UniProt Q9BZR6)
T2 construct: expressed in transfected cells; host or cells: CHO
T2 sequence (Q9BZR6 27-447): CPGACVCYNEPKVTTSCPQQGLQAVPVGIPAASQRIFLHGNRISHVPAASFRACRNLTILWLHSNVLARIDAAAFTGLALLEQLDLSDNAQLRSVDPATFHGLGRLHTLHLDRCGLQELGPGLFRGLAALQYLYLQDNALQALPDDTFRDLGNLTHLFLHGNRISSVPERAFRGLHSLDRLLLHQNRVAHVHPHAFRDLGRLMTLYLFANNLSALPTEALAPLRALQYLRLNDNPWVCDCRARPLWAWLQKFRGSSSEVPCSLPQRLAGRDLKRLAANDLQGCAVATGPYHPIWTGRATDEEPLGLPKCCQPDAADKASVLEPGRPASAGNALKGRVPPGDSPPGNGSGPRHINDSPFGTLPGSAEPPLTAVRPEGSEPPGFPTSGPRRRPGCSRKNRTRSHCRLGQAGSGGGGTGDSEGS

T3: human Nogo Receptor-1 protein (NgR1) (human, UniProt Q9BZR6 27-447)
T3 construct: whole, on cells; also called NgR1 receptor
T3 sequence (looked up): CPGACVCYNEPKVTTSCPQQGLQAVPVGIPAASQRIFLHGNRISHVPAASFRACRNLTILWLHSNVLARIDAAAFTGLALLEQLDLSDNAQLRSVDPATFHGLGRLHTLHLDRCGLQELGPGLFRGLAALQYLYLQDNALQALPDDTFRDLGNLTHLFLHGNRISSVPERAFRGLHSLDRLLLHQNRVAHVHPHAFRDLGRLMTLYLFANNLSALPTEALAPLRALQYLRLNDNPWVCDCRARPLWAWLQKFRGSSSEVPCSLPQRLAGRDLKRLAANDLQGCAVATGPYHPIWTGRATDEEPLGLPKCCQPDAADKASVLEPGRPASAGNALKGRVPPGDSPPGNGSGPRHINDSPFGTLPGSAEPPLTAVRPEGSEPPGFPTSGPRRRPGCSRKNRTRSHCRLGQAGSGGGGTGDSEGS

B1: alkaline phosphatase mutant Nogo-66 domain fusion reporter protein (SEQ ID NO:16) (ligand)
chain: TSRSSGIIPVEEENPDFWNREAAEALGAAKKLQPAQTAAKNLIIFLGDGMGVSTVTAARILKGQKKDKLGPEIPLAMDRFPYVALSKTYNVDKHVPDSGATATAYLCGVKGNFQTIGLSAAARFNQCNTTRGNEVISVMNRAKKAGKSVGVVTTTRVQHASPAGTYAHTVNRNWYSDADVPASARQEGCQDIATQLISNMDIDVILGGGRKYMFRMGTPDPEYPDDYSQGGTRLDGKNLVQEWLAKRQGARYVWNRTELMQASLDPSVTHLMGLFEPGDMKYEIHRDSTLDPSLMEMTEAALRLLSRNPRGFFLFVEGGRIDHGHHESRAYRALTETIMFDDAIERAGQLTSEEDTLSLVTADHSHVFSFGGYPLRGSSIFGLAPGKARDRKAYTVLLYGNGPGYVLKDGARPDVTESESGSPEYRQQSAVPLDEETHAGEDVAVFARGPQAHLVHGVQEQTFIAHVMAFAACLEPYTACDLAPPAGTTDAAHPGNDDDDKLSRDKRIYKGVIQAIQKSDEGHPFRAYLESEVAISEELVQKYSNSALGHVNVTIKELRRLFLVDDLVDSLKHHHHHH
notes: Expressed in HEK293 cells and secreted; Used either purified on TALON resin or as conditioned medium; also called fusion protein; secreted alkaline phosphatase mutant Nogo-66 domain fusion reporter protein

Legend:
[1] = target: T1, human Nogo Receptor-1 protein (NgR1); assay: Binding of purified fusion protein to NgR1-expressing COS7 cells, colorimetric alkaline phosphatase staining; conditions: colorimetric staining based on associated alkaline phosphatase activity
Experimental: Purified fusion protein was assayed for binding to COS7 cells expressing the human Nogo Receptor-1 protein (NgR1). […] Thus, a non-aggregated fusion protein was created that can be used as a reagent to explore the interaction of Nogo-66 with its receptor, or receptors, as well as to identify agents interfering in that interaction (see Example 3).

NgR1 = target: T2, NgR1; assay: Cell-based chemiluminescent SEAP binding assay on CHO cells expressing NGR1; conditions: CSPD substrate
Experimental: A cell-based chemiluminescent SEAP (secreted alkaline phosphastase) assay was used to confirm binding between NgR1 and the fusion reporter protein having the amino acid sequence of SEQ ID NO:16.
On Day 1: CHO cells expressing NGR1 are seeded into each well of a Biocoat poly-D-lysine cellware 96-well plate (Becton Dickinson).
1. The medium is removed and cells are washed with 200 μl/well of HBAH (Hanks' balanced salt solution, bovine serum albumin at 0.5 mg/ml) at room temperature.
2. 100 μl of conditioned medium containing the fusion protein (i.e., conditioned medium prior to resin purification in Example 2 above) is added (or 2 μg of purified fusion protein can be added) to each well. The wells are incubated at room temperature for 90 minutes.
3. The medium is removed from the wells. The cells are washed six times with 200 μl HBAH at room temperature. For each wash, the HBAH is incubated with the cells for 5 minutes and the plates gently swirled.
4. The HBAH is removed. The cells are then fixed with 200 μl of fixative buffer (acetone-formaldehyde (60%, 3%, 20 mM HEPES, pH 7.0)) for 15 seconds at room temperature.
5. The cells are then washed three times with HBS (Hanks' balanced salt solution), 5 minutes each time at room temperature.
6. Buffers are equilibrated to room temperature. […]
16. Read the plates on a LMAXII Luminometer (Molecular Devices, Sunnyvale, Calif.). […]

[2] = Aggregation of purified fusion protein by polyacrylamide gel electrophoresis; assay type: physicochemical; conditions: protein purified from HEK293 conditioned medium by TALON metal affinity chromatography
Experimental: The cDNA (SEQ ID NO:15) of the full-length fusion protein was inserted into the pSMED2 mammalian expression vector and the predicted sequence was confirmed by standard means. The vector was transfected into HEK293 cells and after 48 hours the medium in which the cells were grown was collected (referred to as conditioned medium) (see Example 2). After transfection, the conditioned medium was assayed to determine whether the fusion protein was secreted from the cells. The presence of the fusion protein in the conditioned medium was verified by Western blotting using an antibody against the alkaline phosphatase portion of the fusion. The fusion protein was purified from conditioned medium by TALON (BD/Clonetech) metal affinity chromatography (via the 6 His-tag of the fusion protein) (see Example 2).

[3] = target: T3, human Nogo Receptor-1 protein (NgR1); assay: colorimetric alkaline phosphatase staining of COS7 cells expressing human NgR1
Experimental: Purified fusion protein was assayed for binding to COS7 cells expressing the human Nogo Receptor-1 protein (NgR1). Binding was confirmed by colorimetric staining of NgR1 expressing cells based on associated alkaline phosphatase activity conferred by the fusion protein (see Example 3). Thus, a non-aggregated fusion protein was created that can be used as a reagent to explore the interaction of Nogo-66 with its receptor, or receptors, as well as to identify agents interfering in that interaction (see Example 3).

Row | Molecule | binding to COS7 cells expressing human NgR1 [1] | binding to NgR1 (NgR1) | aggregation state (bands of higher molecular weight) [2] | aggregation state (bands of higher molecular weight) ([2]; listed as fusion protein) | binding result [3]
1 | SEQ ID NO:16: Fusion of signal peptide, human placental secreted alkaline phosphatase portion, enterokinase site, human Nogo-66 domain with Cys47 to Val, His6 tag | Binding was confirmed | can bind to NgR1 | does not aggregate | not aggregated | –
2 | B1 | – | – | – | – | binds
